The target in test [1] is T1, Alder (Aln g 1, MyBiosource, Cat #MBS1041484) (Alder, UniProt P38948 2-160, limits assumed).
T1 construct: Bought reagent
T1 sequence (looked up): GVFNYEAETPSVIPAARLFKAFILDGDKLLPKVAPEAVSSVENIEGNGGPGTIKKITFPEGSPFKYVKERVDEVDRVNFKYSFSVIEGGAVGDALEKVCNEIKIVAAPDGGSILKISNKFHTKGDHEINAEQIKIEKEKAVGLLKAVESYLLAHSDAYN
Briefly: SPR, mAb captured via anti-hFc, 25 C. On the technique in general: Surface plasmon resonance follows binding to a sensor surface in real time, without labels.

The target of test [2] is T2, Celery (Api g 1, MyBiosource, Cat #MBS1171376) (Celery, UniProt P49372 1-154, limits assumed).
T2 construct: Bought reagent
T2 sequence (looked up): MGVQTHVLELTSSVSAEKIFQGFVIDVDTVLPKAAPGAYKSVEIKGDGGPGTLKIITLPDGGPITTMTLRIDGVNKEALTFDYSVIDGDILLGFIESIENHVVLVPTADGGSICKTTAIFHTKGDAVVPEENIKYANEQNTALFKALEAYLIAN
Description: SPR, mAb captured via anti-hFc, 25 C.

Test [3] concerns the target T3, European Hornbeam (Car b 1 isoform 2, MyBiosource, Cat #MBS1043940) (European Hornbeam, UniProt P38950 2-160, limits assumed).
T3 construct: Bought reagent
T3 sequence (looked up): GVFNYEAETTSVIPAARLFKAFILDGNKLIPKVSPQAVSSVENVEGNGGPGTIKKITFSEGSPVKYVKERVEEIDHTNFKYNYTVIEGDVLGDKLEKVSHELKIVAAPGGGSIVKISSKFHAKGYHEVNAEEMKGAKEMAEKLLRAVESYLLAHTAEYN
Description: SPR, mAb captured via anti-hFc, 25 C.

The target of test [4] is T4, Apple (Mal d 1, MyBiosource, Cat #MBS1224919) (Apple, UniProt P43211 2-159, limits assumed).
T4 construct: Bought reagent
T4 sequence (looked up): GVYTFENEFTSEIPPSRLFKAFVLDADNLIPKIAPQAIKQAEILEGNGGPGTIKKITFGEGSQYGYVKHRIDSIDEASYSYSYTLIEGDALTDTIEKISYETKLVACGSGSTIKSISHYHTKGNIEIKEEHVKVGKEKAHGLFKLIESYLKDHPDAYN
Description: SPR, mAb captured via anti-hFc, 25 C.

Test [5] has as its target T5, CHO produced recombinant Bet v 1 containing a S85A mutation with a C-terminal myc-myc hexahistidine tag … (Betula verrucosa (birch)).
T5 chain: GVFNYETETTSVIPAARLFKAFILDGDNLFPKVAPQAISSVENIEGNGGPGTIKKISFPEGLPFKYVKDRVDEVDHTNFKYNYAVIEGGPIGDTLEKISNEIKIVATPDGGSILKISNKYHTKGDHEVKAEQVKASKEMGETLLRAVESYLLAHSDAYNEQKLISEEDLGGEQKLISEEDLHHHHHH
Description: SPR, mAb captured via anti-hFc, 37 C.

Test [6] addresses T6, European Hornbeam (Car b 1 isoform 1A & 1B, MyBiosource, Cat #MBS1200018) (European Hornbeam, UniProt P38949 2-160).
T6 construct: Bought reagent
T6 sequence (looked up): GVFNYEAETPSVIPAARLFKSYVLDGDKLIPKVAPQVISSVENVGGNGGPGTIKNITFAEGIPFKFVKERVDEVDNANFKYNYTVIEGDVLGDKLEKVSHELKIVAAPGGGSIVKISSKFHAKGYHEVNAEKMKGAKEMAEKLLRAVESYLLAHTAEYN
Description: SPR, mAb captured via anti-hFc, 25 C.

The target of test [7] is T5, CHO produced recombinant Bet v 1 …. Briefly: SPR, mAb captured via anti-hFc, 25 C.

This note sets out measurements from US20240083986A1 (published 2024).

B1: H4H16971P (antibody, human IgG4, V domains shown)
VH: QVQLVESGGGVVQPGRSLRLSCAASGFTFSSYGLHWVRQAPGKGLEWVAVISDDGSYKFYADSMKGRFTISRDNSKNTLYLQMNSLRAEDTAVYYCAKDRGRSGWYYFDYWGQGTLVTVSS
VL: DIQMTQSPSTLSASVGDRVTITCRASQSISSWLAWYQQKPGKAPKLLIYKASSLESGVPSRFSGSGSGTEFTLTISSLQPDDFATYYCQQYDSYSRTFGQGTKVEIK
notes: Fully human antibody with human IgG4 Fc (H4H prefix)
One may read the Kd as the equilibrium constant for the complex coming apart. The term koff denotes the first-order rate constant of dissociation. In general, kon refers to the rate constant with which the complex forms. The t½ is how long it takes for the measured level to halve. On to B1, for which, in test [1], the “100 nM Analyte Bound (RU)” value was 41 RU, binding was characterised by a dissociation constant (Kd) of 126 nM, the koff turned out to be 0.0118 s⁻¹ and the kon turned out to be 93000 M⁻¹ s⁻¹. Moreover, the t½ in test [1] stood at 1 min. Also, in test [2], the “100 nM Analyte Bound (RU)” value is 0 RU and the binding result is “no binding (tested: 100 nM)”. Besides, in test [3], the “100 nM Analyte Bound (RU)” value was 23 RU, the dissociation constant Kd worked out at 564 nM, the koff is 0.146 s⁻¹ and the kon was found to be 259000 M⁻¹ s⁻¹. Also, in test [3], the t½ is 0 min. In test [4], the “100 nM Analyte Bound (RU)” value came to 25 RU, the Kd is 494 nM, the off-rate constant (koff) turned out to be 0.0795 s⁻¹ and the kon came out at 161000 M⁻¹ s⁻¹. Moreover, the t½ in test [4] was 0.2 min. In test [5], the “100 nM natural Bet v 1-MHH Bound (RU)” value turned out to be 60 RU, the Kd was determined as 18.6 nM, the koff was 0.012 s⁻¹ and the kon was 648000 M⁻¹ s⁻¹. Also, the t½ in test [5] came to 1 min. In test [6], the “100 nM Analyte Bound (RU)” value was 1 RU and the binding result was “no binding (tested: 100 nM)”. In addition, in test [7], the “100 nM natural Bet v 1- MMH Bound (RU)” value was determined as 58 RU, the Kd came to 9.48 nM, the koff came out at 0.00386 s⁻¹ and the kon was 407000 M⁻¹ s⁻¹. Besides, the t½ in test [7] is 3 min.

B2: H4H16979P (antibody, human IgG4, V domains shown)
VH: QVQLVQSGAEVKKPGASVKVSCKASGYTFIAYYLHWVRQAPGQGLEWMGLLNPYTGGSYYTQKFQGRVTMTRDTSIDTAYMELNSLRSDDTAIYYCARDKRSYYIPYAFEIWGQGTMVTVSS
VL: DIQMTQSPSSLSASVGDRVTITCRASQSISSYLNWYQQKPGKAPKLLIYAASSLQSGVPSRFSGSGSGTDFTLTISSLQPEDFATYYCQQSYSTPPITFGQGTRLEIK
notes: as for B1
Turning to B2, in test [1], the “100 nM Analyte Bound (RU)” value was 0 RU and the binding result was “no binding (tested: 100 nM)”. In test [2], the “100 nM Analyte Bound (RU)” value turned out to be 0 RU and the binding result is “no binding (tested: 100 nM)”. In test [3], the “100 nM Analyte Bound (RU)” value turned out to be 114 RU, binding was put at a Kd of 2.48 nM, the koff was found to be 0.00241 s⁻¹ and the kon was found to be 971000 M⁻¹ s⁻¹. The molecule also came in with a t½ in test [3] of 4.8 min. In test [4], the “100 nM Analyte Bound (RU)” value is 1 RU and the binding result is given as “no binding (tested: 100 nM)”. Moreover, in test [5], the “100 nM natural Bet v 1-MHH Bound (RU)” value was 56 RU, the Kd was 1.58 nM, the dissociation rate constant (koff) worked out at 0.00073 s⁻¹ and the kon amounted to 462000 M⁻¹ s⁻¹. Also, the t½ in test [5] turned out to be 16 min. Besides, in test [6], the “100 nM Analyte Bound (RU)” value was found to be 1 RU and the binding result is reported as “no binding (tested: 100 nM)”. In addition, in test [7], the “100 nM natural Bet v 1- MMH Bound (RU)” value worked out at 46 RU, the dissociation constant Kd stood at 0.804 nM, the koff is 0.00023 s⁻¹ and the kon was determined as 286000 M⁻¹ s⁻¹. Further, the t½ in test [7] amounted to 50 min.

B3: H4H17001P (antibody, human IgG4, V domains shown)
VH: QVQLVESGGGLVKPGGSLRLSCAASGFTFSDYYMNWIRQAPGKGLEWISLISSSGSAIYYSDSVKGRFTISRDNARKSLYLQVNSLRAEDTAVYYCARDRGEWALGAYYYGLDVWGQGTTVTVSS
VL: DIVMTQSPLSLPVTPGEPASISCRSSQSLLHSDGYNYLDWYLQKSGQSPQLLIYLGSNRASGVPDRFSGSGSGTDFTLKISRMEAEDVGVYYCMQALQTPYTFGQGTKLEIK
notes: as for B1
Consider B3, for which, in test [1], the “100 nM Analyte Bound (RU)” value came to 49 RU; the affinity, expressed as Kd, was 105 nM; the koff was 0.0278 s⁻¹; the kon came out at 264000 M⁻¹ s⁻¹. The molecule also yielded a t½ in test [1] of 0.4 min. In test [2], the “100 nM Analyte Bound (RU)” value is -1 RU. In test [3], the “100 nM Analyte Bound (RU)” value amounted to 157 RU, binding was put at a Kd of 1.58 nM, the koff was 0.0032 s⁻¹ and the kon turned out to be 2.03e+06 M⁻¹ s⁻¹. In addition, the t½ in test [3] was 3.6 min. Further, in test [4], the “100 nM Analyte Bound (RU)” value came to 0 RU and the binding result is “no binding (tested: 100 nM)”. In test [5], the “100 nM natural Bet v 1-MHH Bound (RU)” value was 2 RU. Further, in test [6], the “100 nM Analyte Bound (RU)” value was 0 RU and the binding result was “no binding (tested: 100 nM)”. Also, in test [7], the “100 nM natural Bet v 1- MMH Bound (RU)” value came to 1 RU and the binding result is on record as “no binding (tested: 100 nM)”.

B4: H4H16987P (antibody, human IgG4 S228P, kappa, V domains shown)
VH: EVQLVESGGGLVQPGGSLRLSCAASGFTVSSNSMSWVRQAPGEGLEWVSVIFSGGITYYSDSVKGRFTISRHNSKNTLYLQMNSLRTEDTAVYYCARHSNWNFDAFDIWGQGTMVTVSS
VL: DIQMTQSPSSLSASVGDRVTITCRASQSFDTYLNWYQQKPGKAPNLLIYATSSLQSGVPSRFSGSGSGTDFTLTISSLQPEDFGTYYCQQSYSIPYTFGQGTKLEIKR
notes: human IgG4 Fc; also called MAB4
For the molecule B4, in test [1], the “100 nM Analyte Bound (RU)” value is 139 RU, binding was put at a Kd of 3.94 nM, the off-rate (koff) turned out to be 0.00087 s⁻¹ and the kon is 221000 M⁻¹ s⁻¹. The molecule further yielded a t½ in test [1] of 13 min. In test [2], the “100 nM Analyte Bound (RU)” value stood at 1 RU and the binding result is reported as “no binding (tested: 100 nM)”. In test [3], the “100 nM Analyte Bound (RU)” value turned out to be 153 RU, the Kd turned out to be 5.56 nM, the koff worked out at 0.00561 s⁻¹ and the kon was 1.01e+06 M⁻¹ s⁻¹. Besides, the t½ in test [3] was determined as 2.1 min. In test [4], the “100 nM Analyte Bound (RU)” value came to 2 RU and the binding result is “no binding (tested: 100 nM)”. In test [5], the “100 nM natural Bet v 1-MHH Bound (RU)” value came out at 36 RU, the Kd was 106 nM, the off-rate constant (koff) was 0.0847 s⁻¹ and the kon was found to be 795000 M⁻¹ s⁻¹. Further, in test [5], the t½ is 0.14 min. Moreover, in test [6], the “100 nM Analyte Bound (RU)” value is 0 RU and the binding result is given as “no binding (tested: 100 nM)”. Further, in test [7], the “100 nM natural Bet v 1- MMH Bound (RU)” value is 46 RU, the Kd is 43.8 nM, the koff came to 0.0215 s⁻¹ and the kon is 490000 M⁻¹ s⁻¹. Also, in test [7], the t½ came to 0.5 min.

B5: H4H16991P (antibody, human IgG4, V domains shown)
VH: QVQLVQSGAEVRKPGASVKVSCKASGYTFTGYYLHWVRQAPGQGLEWMGLINPNTGGTNFAQKFQGRVTMTRDSSISAAYMELSRLRSDDTAVYYCARQHWNRYFDNWGQGTLVTVSS
VL: DIQMTQSPSTLSASVGDRVTITCRASQSVGNWLAWYQQKPGKAPKLLIQEASSIESGVPSRFSGSGSGTEFTLIVSSLQPDDFATYYCQQYNSYSWTFGHGTKVEIK
notes: as for B1
B5: in test [1], the “100 nM Analyte Bound (RU)” value is 3 RU and the binding result was “no binding (tested: 100 nM)”. For the same molecule, in test [2], the “100 nM Analyte Bound (RU)” value was determined as 0 RU and the binding result is listed as “no binding (tested: 100 nM)”. Further, in test [3], the “100 nM Analyte Bound (RU)” value was determined as 93 RU, the Kd stood at 37.8 nM, the off-rate (koff) came out at 0.0404 s⁻¹ and the kon is 1.07e+06 M⁻¹ s⁻¹. In test [3], this molecule returned a t½ of 0.3 min. In test [4], the “100 nM Analyte Bound (RU)” value stood at 0 RU and the binding result is reported as “no binding (tested: 100 nM)”. In test [5], the “100 nM natural Bet v 1-MHH Bound (RU)” value was determined as 67 RU, the Kd was 1.48 nM, the koff was 0.00106 s⁻¹ and the on-rate constant (kon) turned out to be 717000 M⁻¹ s⁻¹. Moreover, the t½ in test [5] is 11 min. In test [6], the “100 nM Analyte Bound (RU)” value came out at 1 RU and the binding result is on record as “no binding (tested: 100 nM)”. In test [7], the “100 nM natural Bet v 1- MMH Bound (RU)” value stood at 61 RU, the Kd came out at 0.735 nM, the koff was 0.000287 s⁻¹ and the kon came out at 390000 M⁻¹ s⁻¹. In addition, the t½ in test [7] was found to be 40 min.
